Experimental data taken from patent publication US20100162418A1 (Kyowa Kirin, published 2010).
One block for each binder: values may come before it.

Columns and labels:
[1] = biological target: T1, MSPS, purified recombinant human Protein S obtained from FUT8 knockout CHO/DG44 cells (human, UniProt P07225 42-676, gamma-carboxylated glutamic acid (Gla) in the Gla domain; complex type N-glycoside-linked sugar chains without fucose (fucose not detected)); experiment: SPR (Biacore), S100A8/A9 immobilised on C1 chip, MSPS as analyte
T1 construct: It differs from KCPS only in glycosylation (no core fucose); also called fucose-free recombinant Protein S
T1 sequence: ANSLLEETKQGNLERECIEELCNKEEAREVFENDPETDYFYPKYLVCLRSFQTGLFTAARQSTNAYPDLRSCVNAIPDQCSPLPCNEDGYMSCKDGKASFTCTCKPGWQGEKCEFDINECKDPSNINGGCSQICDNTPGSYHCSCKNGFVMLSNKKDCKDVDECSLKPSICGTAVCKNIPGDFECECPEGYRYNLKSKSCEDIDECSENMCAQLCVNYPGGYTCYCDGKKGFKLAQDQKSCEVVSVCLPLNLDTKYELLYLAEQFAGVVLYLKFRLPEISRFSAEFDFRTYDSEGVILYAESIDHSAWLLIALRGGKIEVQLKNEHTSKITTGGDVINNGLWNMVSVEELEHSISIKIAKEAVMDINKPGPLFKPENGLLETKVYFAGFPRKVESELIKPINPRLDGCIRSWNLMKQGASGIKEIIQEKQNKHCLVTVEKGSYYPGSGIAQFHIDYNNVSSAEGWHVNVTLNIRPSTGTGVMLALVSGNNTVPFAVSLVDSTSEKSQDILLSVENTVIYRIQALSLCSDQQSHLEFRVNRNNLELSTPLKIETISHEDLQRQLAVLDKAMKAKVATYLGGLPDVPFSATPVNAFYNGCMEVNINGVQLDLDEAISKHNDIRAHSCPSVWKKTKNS
Description: Using an amine coupling kit (manufactured by Biacore), recombinant human HMGB-1 (manufactured by R&D Systems), recombinant human Mac-1 heterodimer (αmβ2 integrin, CD11b/CD18; manufactured by R&D Systems), and recombinant human S100A8/A9 (manufactured by R&D Systems) were respectively immobilized at 200 RU, 1200 RU, and 400 RU on flow cells of a Series S C1 sensor chip (manufactured by Biacore). The measurement was carried out in the same manner as in Example 5, except that the recombinant human RAGE-Fc fusion protein (manufactured by R&D Systems) diluted to given concentrations of 50000, 5000 or 500 ng/mL was used as an analyte.
Next, using the same sensor chip, the same binding experiment was carried out using a recombinant human RAGE-Fc fusion protein (5000 ng/mL) mixed with MSPS (final concentration of 50000 and 5000 μg/mL), as an analyte.

[2] = biological target: T2, recombinant human RAGE-Fc fusion protein (manufactured by R&D Systems) (human, UniProt Q15109 24-344); experiment: SPR (Biacore), S100A8/A9 immobilised on C1 chip, RAGE-Fc (50000, 5000, 500 ng/mL) as analyte
T2 construct: Bought fusion protein; also called recombinant soluble RAGE-human IgG1 Fc chimeric protein; not shown: Fc of human IgG1
T2 sequence (Q15109 24-344 limits assumed): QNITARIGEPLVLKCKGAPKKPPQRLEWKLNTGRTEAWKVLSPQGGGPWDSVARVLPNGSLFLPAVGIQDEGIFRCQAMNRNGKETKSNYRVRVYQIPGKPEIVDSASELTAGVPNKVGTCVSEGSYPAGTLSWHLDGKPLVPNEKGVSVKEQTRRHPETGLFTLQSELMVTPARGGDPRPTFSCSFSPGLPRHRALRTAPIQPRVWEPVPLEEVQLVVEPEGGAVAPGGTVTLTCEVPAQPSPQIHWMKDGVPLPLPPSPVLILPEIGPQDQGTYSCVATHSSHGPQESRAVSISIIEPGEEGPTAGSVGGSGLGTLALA
Excerpt: (§1) Using an amine coupling kit (manufactured by Biacore), human plasma-derived Protein S (manufactured by Calbiochem), human plasma-derived complement C4 binding protein (C4BP; manufactured by BioMed), and human plasma-derived complement C1 inhibitor Berinert P (manufactured by CSL Behring) were respectively immobilized on flow cells of a CM5 sensor chip (manufactured by Biacore). An immobilized amount of the ligand protein on the respective flow cells was set to the range of 2400 to 3600 resonance units (hereinafter referred to as “RU”). The complement C4 binding protein and the complement C1 inhibitor are known as plasma glycoproteins having the anti-inflammatory effect. Then, a recombinant human RAGE-Fc fusion protein (manufactured by R&D Systems) diluted to given concentrations (50000, 25000, 12500, 6250, 3125, and 1562 ng/mL) using HBS-EP+buffer (manufactured by Biacore), as an analyte, was allowed to run and bind to the ligand-immobilized flow cells at a temperature of 25° C., a flow rate of 5 μL/min, association time of 140 seconds, and dissociation time of 240 seconds. The chip was regenerated by a flow of an aqueous glycine solution (pH 1.5) (manufactured by Biacore) for 60 seconds. […]

[3] = biological target: T3, human plasma-derived Protein S (manufactured by Calbiochem) (human, UniProt P07225 42-676, gamma-carboxylated glutamic acid (Gla) in the N-terminal Gla domain; complex type N-glycoside-linked sugar chains (Asn458, Asn468, Asn489), partly with core alpha1,6-fucose (Fuc 0.26 per Man 3.00)); experiment: SPR (Biacore), plasma Protein S immobilised on CM5, E-selectin Fc as analyte
T3 construct: Bought protein purified from human plasma; also called native Protein S; Human plasma Protein S
T3 sequence: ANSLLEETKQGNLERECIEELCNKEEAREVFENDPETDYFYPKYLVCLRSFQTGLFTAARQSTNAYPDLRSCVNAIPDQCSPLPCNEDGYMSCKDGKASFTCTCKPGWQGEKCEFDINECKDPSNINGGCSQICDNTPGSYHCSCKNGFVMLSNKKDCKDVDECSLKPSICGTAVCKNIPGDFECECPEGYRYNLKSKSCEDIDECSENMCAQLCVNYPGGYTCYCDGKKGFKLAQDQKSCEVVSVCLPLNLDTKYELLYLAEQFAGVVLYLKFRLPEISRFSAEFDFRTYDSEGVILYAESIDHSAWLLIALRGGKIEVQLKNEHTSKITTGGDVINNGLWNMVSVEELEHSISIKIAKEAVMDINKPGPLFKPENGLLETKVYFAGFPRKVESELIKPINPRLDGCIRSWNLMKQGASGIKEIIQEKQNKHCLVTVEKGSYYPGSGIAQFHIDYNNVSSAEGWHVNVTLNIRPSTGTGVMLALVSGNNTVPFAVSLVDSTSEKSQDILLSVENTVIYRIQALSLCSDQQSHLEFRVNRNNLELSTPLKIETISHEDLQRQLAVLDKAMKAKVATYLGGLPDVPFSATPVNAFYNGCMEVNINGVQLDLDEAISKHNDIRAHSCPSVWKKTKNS

[4] = biological target: T1, MSPS, purified recombinant human …; experiment: SPR (Biacore), HMGB-1 immobilised on C1 chip, MSPS as analyte
[5] = biological target: T2, recombinant human RAGE-Fc fusion …; experiment: SPR (Biacore), HMGB-1 immobilised on C1 chip, RAGE-Fc (50000, 5000, 500 ng/mL) as analyte
Excerpt: as §1

binding result [1]: no binding
binding result [2]: binds
B1: recombinant human S100A8/A9 (manufactured by R&D Systems) (ligand)
chain 1: MLTELEKALNSIIDVYHKYSLIKGNFHAVYRDDLKKLLETECPQYIRKKGADVWFKELDINTDGAVNFQEFLILVIKMGVAAHKKSHEESHKE
chain 2: MTCKMSQLERNIETIINTFHQYSVKLGHPDTLNQGEFKELVRKDLQNFLKKENKNEKVIEHIMEDLDTNADKQLSFEEFIMLMARLTWASHEKMHEGDEGPGHHHKPGLGEGTP
notes: Bought

binding result [3]: no binding
B2: human E-selectin Fc fusion protein (manufactured by R&D systems) (Fc fusion, UniProt P16581 22-556, looked up)
chain: WSYNTSTEAMTYDEASAYCQQRYTHLVAIQNKEEIEYLNSILSYSPSYYWIGIRKVNNVWVWVGTQKPLTEEAKNWAPGEPNNRQKDEDCVEIYIKREKDVGMWNDERCSKKKLALCYTAACTNTSCSGHGECVETINNYTCKCDPGFSGLKCEQIVNCTALESPEHGSLVCSHPLGNFSYNSSCSISCDRGYLPSSMETMQCMSSGEWSAPIPACNVVECDAVTNPANGFVECFQNPGSFPWNTTCTFDCEEGFELMGAQSLQCTSSGNWDNEKPTCKAVTCRAVRQPQNGSVRCSHSPAGEFTFKSSCNFTCEEGFMLQGPAQVECTTQGQWTQQIPVCEAFQCTALSNPERGYMNCLPSASGSFRYGSSCEFSCEQGFVLKGSKRLQCGPTGEWDNEKPTCEAVRCDAVHQPPKGLVRCAHSPIGEFTYKSSCAFSCEEGFELHGSTQLECTSQGQWTEEVPSCQVVKCSSLAVPGKINMSCSGEPVFGTVCKFACPEGWTLNGSAARTCGATGHWSGLLPTCEAPTESNIP
notes: Fc-bearing control protein; bought; not shown: Fc, described as similar to the Fc of human IgG1 contained in the RAGE-Fc fusion protein

binding result [4]: no binding
binding result [5]: binds
B3: recombinant human HMGB-1 (manufactured by R&D Systems) (ligand, UniProt P09429 1-215, looked up)
chain: MGKGDPKKPRGKMSSYAFFVQTCREEHKKKHPDASVNFSEFSKKCSERWKTMSAKEKGKFEDMAKADKARYEREMKTYIPPKGETKKKFKDPNAPKRPPSAFFLFCSEYRPKIKGEHPGLSIGDVAKKLGEMWNNTAADDKQPYEKKAAKLKEKYEKDIAAYRAKGKPDAAKKGVVKAEKSKKKKEEEEDEEDEEDEEEEEDEEDEDEEEDDDDE
